Reference: IntAct's records for PubMed 31515488

Legend:
[1] = biological target: ndor1_human NDOR1 (UniProt Q9UHB4)
[2] = biological target: glrx3_human GLRX3 (UniProt O76003)
[3] = biological target: ntaq1_human NTAQ1 (UniProt Q96HA8)
[4] = biological target: zksc4_human ZKSCAN4 (UniProt Q969J2)
[5] = biological target: T1, efhc2_human EFHC2 (UniProt Q5JST6)
T1 sequence: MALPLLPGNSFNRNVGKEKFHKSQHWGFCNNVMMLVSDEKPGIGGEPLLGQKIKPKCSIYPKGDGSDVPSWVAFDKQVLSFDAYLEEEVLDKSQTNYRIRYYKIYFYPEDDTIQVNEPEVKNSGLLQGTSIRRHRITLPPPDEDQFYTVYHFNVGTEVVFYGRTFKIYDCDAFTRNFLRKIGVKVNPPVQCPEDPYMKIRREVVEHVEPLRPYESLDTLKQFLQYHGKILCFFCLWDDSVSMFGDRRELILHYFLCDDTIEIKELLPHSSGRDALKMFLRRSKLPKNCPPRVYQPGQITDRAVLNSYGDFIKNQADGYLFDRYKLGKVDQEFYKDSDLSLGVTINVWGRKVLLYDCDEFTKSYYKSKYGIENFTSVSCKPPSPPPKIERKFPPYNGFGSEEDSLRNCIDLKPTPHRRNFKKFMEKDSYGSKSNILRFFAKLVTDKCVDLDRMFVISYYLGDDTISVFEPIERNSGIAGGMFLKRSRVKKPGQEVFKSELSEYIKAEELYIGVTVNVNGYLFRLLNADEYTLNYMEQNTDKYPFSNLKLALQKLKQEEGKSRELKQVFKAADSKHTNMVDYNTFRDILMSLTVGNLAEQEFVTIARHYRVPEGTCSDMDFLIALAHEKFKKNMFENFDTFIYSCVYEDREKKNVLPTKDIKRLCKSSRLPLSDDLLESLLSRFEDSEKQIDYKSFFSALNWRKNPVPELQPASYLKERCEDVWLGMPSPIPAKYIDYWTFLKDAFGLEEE

[6] = biological target: trip6_human TRIP6 (UniProt Q15654)
[7] = biological target: pak1_human PAK1 (UniProt Q13153)
[8] = biological target: rasf7_human RASSF7 (UniProt Q02833)
[9] = biological target: tpp2_human TPP2 (UniProt P29144)
[10] = biological target: adas_human AGPS (UniProt O00116)
adas_human AGPS, sequence (O00116 whole entry): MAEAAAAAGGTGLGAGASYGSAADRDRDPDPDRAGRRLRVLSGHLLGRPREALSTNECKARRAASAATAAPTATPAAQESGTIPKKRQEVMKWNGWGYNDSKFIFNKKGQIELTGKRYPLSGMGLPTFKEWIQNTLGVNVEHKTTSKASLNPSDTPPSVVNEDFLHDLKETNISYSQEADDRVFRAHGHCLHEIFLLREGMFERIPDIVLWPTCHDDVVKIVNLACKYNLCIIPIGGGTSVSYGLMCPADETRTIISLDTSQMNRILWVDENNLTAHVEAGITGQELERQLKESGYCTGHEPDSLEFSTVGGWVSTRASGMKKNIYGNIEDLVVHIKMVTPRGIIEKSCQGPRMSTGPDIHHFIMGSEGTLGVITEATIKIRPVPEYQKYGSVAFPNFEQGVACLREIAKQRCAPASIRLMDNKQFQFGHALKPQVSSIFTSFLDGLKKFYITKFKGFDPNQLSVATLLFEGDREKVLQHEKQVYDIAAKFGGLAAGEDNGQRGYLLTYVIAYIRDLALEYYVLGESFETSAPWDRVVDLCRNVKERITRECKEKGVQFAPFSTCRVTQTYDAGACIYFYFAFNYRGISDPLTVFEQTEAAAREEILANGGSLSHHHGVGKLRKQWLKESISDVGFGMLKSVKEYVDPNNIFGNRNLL

[11] = biological target: phs_human PCBD1 (UniProt P61457)
phs_human PCBD1, sequence (P61457 whole entry): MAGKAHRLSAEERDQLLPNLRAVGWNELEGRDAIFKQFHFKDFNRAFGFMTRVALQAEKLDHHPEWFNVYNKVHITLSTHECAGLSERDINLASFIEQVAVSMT

[12] = biological target: ei2ba_human EIF2B1 (UniProt Q14232)
[13] = biological target: zmat1_human ZMAT1 (UniProt Q5H9K5)
[14] = biological target: dpyl2_human DPYSL2 (UniProt Q16555)
[15] = biological target: cryaa_human CRYAA (UniProt P02489)
[16] = biological target: T2, dmc1_human DMC1 (UniProt Q14565)
T2 sequence: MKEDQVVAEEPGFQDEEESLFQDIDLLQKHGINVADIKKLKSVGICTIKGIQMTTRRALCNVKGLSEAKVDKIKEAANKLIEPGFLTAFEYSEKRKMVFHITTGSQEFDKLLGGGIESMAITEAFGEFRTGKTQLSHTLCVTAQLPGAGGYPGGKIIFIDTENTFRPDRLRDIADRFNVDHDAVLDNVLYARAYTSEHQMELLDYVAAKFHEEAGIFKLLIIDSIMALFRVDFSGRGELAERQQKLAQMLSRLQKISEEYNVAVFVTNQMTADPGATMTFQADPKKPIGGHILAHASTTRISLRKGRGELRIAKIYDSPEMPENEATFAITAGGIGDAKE

[17] = biological target: T3, acy3_human ACY3 (UniProt Q96HD9)
T3 sequence: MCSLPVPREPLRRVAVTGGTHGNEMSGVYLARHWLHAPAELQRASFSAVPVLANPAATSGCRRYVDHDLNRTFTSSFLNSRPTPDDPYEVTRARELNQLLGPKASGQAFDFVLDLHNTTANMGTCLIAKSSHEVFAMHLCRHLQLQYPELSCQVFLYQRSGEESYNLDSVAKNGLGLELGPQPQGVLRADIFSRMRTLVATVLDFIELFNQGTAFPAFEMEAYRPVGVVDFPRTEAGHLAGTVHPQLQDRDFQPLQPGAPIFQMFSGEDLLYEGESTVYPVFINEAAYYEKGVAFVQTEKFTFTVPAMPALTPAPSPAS

[18] = biological target: cep63_human CEP63 (UniProt Q96MT8)
[19] = biological target: lpxn_human LPXN (UniProt O60711)
[20] = biological target: stk24_human STK24 (UniProt Q9Y6E0)
[21] = biological target: stk25_human STK25 (UniProt O00506)
[22] = biological target: T4, cep55_human CEP55 (UniProt Q53EZ4)
T4 sequence: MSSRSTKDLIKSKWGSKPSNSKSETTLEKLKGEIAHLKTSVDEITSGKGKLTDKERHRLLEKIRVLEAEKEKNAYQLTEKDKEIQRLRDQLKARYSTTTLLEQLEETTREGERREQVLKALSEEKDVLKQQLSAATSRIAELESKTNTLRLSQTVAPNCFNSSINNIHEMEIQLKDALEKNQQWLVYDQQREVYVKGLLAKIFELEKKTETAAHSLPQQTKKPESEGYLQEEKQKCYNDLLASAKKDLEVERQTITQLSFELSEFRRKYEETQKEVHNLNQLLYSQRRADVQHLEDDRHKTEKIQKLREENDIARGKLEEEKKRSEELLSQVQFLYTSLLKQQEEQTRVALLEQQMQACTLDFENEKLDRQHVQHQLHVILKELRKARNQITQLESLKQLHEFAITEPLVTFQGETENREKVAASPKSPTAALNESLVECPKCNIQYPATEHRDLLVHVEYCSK

[23] = biological target: T5, rnps1_human RNPS1 (UniProt Q15287)
T5 sequence: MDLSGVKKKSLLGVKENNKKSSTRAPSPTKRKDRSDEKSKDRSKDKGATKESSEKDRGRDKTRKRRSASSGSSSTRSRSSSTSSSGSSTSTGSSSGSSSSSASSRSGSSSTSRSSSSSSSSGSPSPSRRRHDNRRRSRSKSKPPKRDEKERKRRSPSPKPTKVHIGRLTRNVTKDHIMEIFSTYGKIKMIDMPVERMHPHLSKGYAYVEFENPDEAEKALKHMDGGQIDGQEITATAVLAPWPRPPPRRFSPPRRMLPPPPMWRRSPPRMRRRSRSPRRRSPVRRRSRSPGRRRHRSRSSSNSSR

[24] = biological target: T6, lc7l2_human LUC7L2 (UniProt Q9Y383)
T6 sequence: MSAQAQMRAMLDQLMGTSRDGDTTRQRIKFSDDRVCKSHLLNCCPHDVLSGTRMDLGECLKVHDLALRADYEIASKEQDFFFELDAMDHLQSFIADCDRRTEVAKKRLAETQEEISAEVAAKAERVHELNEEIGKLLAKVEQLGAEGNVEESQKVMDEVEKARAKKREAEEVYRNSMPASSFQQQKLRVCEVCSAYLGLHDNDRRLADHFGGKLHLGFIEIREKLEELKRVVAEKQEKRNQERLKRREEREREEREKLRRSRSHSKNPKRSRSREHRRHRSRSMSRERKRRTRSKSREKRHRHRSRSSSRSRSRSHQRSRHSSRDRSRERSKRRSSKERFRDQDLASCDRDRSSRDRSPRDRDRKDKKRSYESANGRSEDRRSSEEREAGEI

[25] = biological target: clip4_human CLIP4 (UniProt Q8N3C7)
[26] = biological target: klhl2_human KLHL2 (UniProt O95198)
klhl2_human KLHL2, sequence (O95198 whole entry): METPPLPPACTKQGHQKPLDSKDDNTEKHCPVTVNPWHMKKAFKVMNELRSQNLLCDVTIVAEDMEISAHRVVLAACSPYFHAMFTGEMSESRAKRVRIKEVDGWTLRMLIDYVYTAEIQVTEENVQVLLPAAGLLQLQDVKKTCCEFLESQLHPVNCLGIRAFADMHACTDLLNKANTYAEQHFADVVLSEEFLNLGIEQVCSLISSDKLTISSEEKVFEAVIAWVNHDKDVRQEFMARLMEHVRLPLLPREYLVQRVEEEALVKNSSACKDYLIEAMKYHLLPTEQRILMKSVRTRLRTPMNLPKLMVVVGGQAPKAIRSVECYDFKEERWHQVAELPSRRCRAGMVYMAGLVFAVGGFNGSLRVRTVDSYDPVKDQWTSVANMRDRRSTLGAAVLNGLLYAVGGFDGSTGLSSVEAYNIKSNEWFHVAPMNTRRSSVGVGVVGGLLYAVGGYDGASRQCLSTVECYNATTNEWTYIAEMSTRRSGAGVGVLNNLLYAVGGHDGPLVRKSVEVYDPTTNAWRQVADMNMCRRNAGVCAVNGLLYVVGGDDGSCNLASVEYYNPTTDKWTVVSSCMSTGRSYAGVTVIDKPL

[27] = biological target: kr107_human KRTAP10-7 (UniProt P60409)
[28] = biological target: zc4h2_human ZC4H2 (UniProt Q9NQZ6)
[29] = biological target: mdfi_human MDFI (UniProt Q99750)
[30] = biological target: sufu_human SUFU (UniProt Q9UMX1)
sufu_human SUFU, sequence (Q9UMX1 whole entry): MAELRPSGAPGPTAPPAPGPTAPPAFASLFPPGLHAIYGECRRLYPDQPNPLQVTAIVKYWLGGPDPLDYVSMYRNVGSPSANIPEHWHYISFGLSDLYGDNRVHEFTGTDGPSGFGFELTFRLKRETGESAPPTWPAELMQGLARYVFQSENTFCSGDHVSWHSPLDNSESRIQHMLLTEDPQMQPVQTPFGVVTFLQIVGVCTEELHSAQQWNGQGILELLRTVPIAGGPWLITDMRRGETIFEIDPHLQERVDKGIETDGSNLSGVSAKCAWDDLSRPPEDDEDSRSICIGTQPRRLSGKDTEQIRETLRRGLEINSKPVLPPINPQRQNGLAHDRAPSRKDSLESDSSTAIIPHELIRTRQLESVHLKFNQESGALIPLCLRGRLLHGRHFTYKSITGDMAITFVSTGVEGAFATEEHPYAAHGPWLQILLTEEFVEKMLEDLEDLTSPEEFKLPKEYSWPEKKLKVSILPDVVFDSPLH

[31] = biological target: rby1a_human RBMY1A1 (UniProt P0DJD3)
[32] = biological target: aen_human AEN (UniProt Q8WTP8)
[33] = biological target: nkap1_human NKAPD1 (UniProt Q6ZUT1)
[34] = biological target: gpt2l_human GPATCH2L (UniProt Q9NWQ4)
[35] = biological target: mfap1_human MFAP1 (UniProt P55081)
[36] = biological target: sufu_human SUFU (UniProt Q9UMX1); remark: listed apart in the source

Zinc finger protein 223 (Homo sapiens), Q9UK11 S357A, sequence (Q9UK11 whole entry S357A): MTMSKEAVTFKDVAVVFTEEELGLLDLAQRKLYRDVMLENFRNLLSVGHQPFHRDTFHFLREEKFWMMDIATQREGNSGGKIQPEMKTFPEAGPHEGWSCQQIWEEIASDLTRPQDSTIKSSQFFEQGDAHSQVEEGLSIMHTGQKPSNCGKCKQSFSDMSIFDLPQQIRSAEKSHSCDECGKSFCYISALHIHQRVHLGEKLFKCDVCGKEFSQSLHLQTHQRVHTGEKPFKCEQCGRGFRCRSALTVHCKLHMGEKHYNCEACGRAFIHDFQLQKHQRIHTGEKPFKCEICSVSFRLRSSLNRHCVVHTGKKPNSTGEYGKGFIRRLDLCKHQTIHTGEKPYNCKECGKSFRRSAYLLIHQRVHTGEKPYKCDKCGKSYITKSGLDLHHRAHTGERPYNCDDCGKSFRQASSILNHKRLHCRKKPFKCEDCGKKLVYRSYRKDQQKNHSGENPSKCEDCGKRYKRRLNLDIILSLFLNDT
Cytoplasmic protein NCK2 (Homo sapiens), O43639 E125K, sequence (O43639 whole entry E125K): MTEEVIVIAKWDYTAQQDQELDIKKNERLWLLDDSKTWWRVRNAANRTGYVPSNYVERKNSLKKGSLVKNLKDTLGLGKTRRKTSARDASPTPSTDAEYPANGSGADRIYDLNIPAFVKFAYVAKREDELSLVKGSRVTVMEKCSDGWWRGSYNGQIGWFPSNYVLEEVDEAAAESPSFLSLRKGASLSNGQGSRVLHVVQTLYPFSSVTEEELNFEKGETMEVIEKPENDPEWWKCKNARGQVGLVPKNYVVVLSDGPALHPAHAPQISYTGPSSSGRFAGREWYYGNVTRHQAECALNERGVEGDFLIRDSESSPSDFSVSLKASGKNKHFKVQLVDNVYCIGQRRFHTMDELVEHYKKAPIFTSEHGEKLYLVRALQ
Zinc finger protein 317 (Homo sapiens), Q96PQ6 Q19H, sequence (Q96PQ6 whole entry Q19H): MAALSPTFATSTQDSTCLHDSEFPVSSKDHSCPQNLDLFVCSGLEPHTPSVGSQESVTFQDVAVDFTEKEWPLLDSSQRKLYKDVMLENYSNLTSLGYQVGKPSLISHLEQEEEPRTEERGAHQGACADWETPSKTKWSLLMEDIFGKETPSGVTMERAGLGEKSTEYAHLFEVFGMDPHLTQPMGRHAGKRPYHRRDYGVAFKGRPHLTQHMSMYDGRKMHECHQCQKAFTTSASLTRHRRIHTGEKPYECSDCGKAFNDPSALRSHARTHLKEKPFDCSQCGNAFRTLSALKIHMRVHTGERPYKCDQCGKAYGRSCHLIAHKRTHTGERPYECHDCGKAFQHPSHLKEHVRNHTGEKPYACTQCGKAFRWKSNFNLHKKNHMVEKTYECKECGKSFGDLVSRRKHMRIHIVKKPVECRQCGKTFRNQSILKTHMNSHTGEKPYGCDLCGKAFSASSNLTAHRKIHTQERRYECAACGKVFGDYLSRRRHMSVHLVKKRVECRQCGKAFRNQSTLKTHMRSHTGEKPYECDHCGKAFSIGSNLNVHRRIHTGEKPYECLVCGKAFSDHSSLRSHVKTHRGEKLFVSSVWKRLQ
Zinc finger protein 114 (Homo sapiens), Q8NC26 V207A, sequence (Q8NC26 whole entry V207A): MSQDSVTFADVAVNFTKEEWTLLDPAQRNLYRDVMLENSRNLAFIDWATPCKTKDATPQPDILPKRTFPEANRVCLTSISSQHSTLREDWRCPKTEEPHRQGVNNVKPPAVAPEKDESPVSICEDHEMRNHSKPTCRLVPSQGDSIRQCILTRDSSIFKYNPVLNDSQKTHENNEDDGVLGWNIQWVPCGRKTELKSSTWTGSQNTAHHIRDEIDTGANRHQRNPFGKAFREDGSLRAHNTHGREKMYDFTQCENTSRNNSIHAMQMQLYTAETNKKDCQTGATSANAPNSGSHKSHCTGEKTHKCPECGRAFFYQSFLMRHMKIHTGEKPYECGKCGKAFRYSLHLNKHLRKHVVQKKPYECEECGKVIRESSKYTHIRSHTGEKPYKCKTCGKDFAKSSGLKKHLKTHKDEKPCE
Anamorsin (Homo sapiens), Q6FI81 A34E, sequence (Q6FI81 whole entry A34E): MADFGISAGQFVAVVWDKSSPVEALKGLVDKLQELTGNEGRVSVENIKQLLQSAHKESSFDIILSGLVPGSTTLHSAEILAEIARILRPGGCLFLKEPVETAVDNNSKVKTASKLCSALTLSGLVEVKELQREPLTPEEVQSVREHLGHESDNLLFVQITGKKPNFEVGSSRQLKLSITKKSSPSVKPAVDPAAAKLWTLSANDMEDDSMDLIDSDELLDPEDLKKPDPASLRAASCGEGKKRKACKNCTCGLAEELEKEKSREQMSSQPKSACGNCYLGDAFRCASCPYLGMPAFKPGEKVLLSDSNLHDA
zksc4_human ZKSCAN4, sequence (Q969J2 whole entry): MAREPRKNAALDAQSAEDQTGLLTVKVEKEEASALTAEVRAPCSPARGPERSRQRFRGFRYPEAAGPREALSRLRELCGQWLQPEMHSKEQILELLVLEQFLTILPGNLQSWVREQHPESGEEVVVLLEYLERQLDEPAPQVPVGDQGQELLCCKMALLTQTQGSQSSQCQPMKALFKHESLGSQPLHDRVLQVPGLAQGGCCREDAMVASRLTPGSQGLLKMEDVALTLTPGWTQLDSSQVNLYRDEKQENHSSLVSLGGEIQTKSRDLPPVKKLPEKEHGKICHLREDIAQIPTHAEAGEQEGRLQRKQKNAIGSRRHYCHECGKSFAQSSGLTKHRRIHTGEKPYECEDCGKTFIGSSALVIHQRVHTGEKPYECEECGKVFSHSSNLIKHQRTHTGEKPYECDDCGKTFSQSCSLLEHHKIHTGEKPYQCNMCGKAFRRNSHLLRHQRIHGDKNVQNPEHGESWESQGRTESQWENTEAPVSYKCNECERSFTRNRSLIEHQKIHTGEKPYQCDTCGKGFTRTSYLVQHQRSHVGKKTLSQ
glrx3_human GLRX3, sequence (O76003 whole entry): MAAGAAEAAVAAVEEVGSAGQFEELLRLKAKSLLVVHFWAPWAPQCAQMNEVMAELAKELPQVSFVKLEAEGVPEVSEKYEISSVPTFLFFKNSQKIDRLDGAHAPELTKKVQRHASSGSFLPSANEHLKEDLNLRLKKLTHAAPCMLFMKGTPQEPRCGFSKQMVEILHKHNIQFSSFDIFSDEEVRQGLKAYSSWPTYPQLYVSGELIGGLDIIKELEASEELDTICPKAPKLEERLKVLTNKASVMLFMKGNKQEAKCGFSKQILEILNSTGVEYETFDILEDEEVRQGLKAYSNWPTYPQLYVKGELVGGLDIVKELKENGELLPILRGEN

For Anamorsin (Homo sapiens), Q6FI81 A34E, the “effect of a mutation on the interaction” value [1] was “disrupting interaction strength” and the “effect of a mutation on the interaction” value [2] was “with no effect”.

With “Argininosuccinate lyase (Homo sapiens), P04424 R12Q” the “effect of a mutation on the interaction” value [3] was “with no effect”.

“Calcium-binding protein 5 (Homo sapiens), Q9NP86 E140K” was tested, and the “effect of a mutation on the interaction” value [4] was “with no effect”.

For “Chloride intracellular channel protein 3 (Homo sapiens) (from UniProt O95833) M210L”, the “effect of a mutation on the interaction” value [5] was “with no effect”.

With “Cytoplasmic protein NCK2 (Homo sapiens), O43639 E125K” the “effect of a mutation on the interaction” value [6] was “with no effect”, the “effect of a mutation on the interaction” value [7] was “with no effect” and the “effect of a mutation on the interaction” value [8] was “with no effect”.

“DNA polymerase beta (Homo sapiens) (from UniProt P06746) P242R” was tested, and the “effect of a mutation on the interaction” value [9] was “with no effect”.

With “Golgi reassembly-stacking protein 1 (Homo sapiens), Q9BQQ3 T425M” the “effect of a mutation on the interaction” value [10] was “with no effect”.

For “Golgi reassembly-stacking protein 2 (Homo sapiens) (from UniProt Q9H8Y8) T415M”, the “effect of a mutation on the interaction” value [11] was “with no effect”, the “effect of a mutation on the interaction” value [12] was “with no effect” and the “effect of a mutation on the interaction” value [13] was “with no effect”. The “effect of a mutation on the interaction” value [14] was “with no effect”, the “effect of a mutation on the interaction” value [15] was “with no effect” and the “effect of a mutation on the interaction” value [16] was “with no effect”. For the same substance, the “effect of a mutation on the interaction” value [17] was “with no effect”.

For “Histone-lysine N-methyltransferase EZH2 (Homo sapiens), Q15910 M439T”, the “effect of a mutation on the interaction” value [18] was “disrupting interaction strength”.

For “Homeobox protein Hox-C9 (Homo sapiens), P31274 A122V”, the “effect of a mutation on the interaction” value [19] was “with no effect”.

For “Programmed cell death protein 10 (Homo sapiens), Q9BUL8 M20V”, the “effect of a mutation on the interaction” value [20] was “with no effect”.

With “Programmed cell death protein 10 (Homo sapiens), Q9BUL8 M92V” the “effect of a mutation on the interaction” value [21] was “with no effect”.

With “Ribosomal RNA small subunit methyltransferase NEP1 (Homo sapiens) (from UniProt Q92979) A34G” the “effect of a mutation on the interaction” value [22] was “with no effect”.

“Serine/arginine-rich splicing factor 6 (Homo sapiens) (from UniProt Q13247-1) R145Q” was tested, and the “effect of a mutation on the interaction” value [23] was “with no effect” and the “effect of a mutation on the interaction” value [24] was “with no effect”.

In the case of “Zinc finger protein 114 (Homo sapiens), Q8NC26 V207A”, the “effect of a mutation on the interaction” value [25] is reported as “with no effect” and the “effect of a mutation on the interaction” value [26] is reported as “with no effect”.

With “Zinc finger protein 223 (Homo sapiens), Q9UK11 S357A” the “effect of a mutation on the interaction” value [27] was “with no effect”, the “effect of a mutation on the interaction” value [28] was “with no effect” and the “effect of a mutation on the interaction” value [29] was “with no effect”.

In the case of “Zinc finger protein 263 (Homo sapiens), O14978 C310S”, the “effect of a mutation on the interaction” value [30] is reported as “with no effect”.

With “Zinc finger protein 317 (Homo sapiens), Q96PQ6 Q19H” the “effect of a mutation on the interaction” value [31] was “with no effect”, the “effect of a mutation on the interaction” value [32] was “with no effect” and the “effect of a mutation on the interaction” value [33] was “with no effect”.

For “Zinc finger protein 398 (Homo sapiens), Q8TD17 V252M”, the “effect of a mutation on the interaction” value [34] was “with no effect” and the “effect of a mutation on the interaction” value [35] was “with no effect”.

In the case of “Zinc finger protein 747 (Homo sapiens), Q9BV97 G28R”, the “effect of a mutation on the interaction” value [36] is reported as “with no effect”.
